Data on two molecules can be found in patent publication US11858972B2, “Micropeptides and uses thereof” (FUNDACIÓ PRIVADA INSTITUT D'INVESTIGACIÓ ONCOLÒGICA DE VALL …, priority 2018, dated 2024).

The test system of one assay is p21 protein. As to the kind of experiment: p21 protein by Western blot in A549. It counts as cell-based, human. As for the experimental part: (§1) FIG. 24. Overexpression of the micropeptide of SEQ ID NO: 3 induces p21 upregulation and a pro-apoptotic program (A) qPCR analysis of p21 expression in HCT116 and A549 cancer cell lines upon SEQ ID NO: 3 overexpression. (B) Western blot analysis of p21 protein in A549 SEQ ID NO: 3-overexpressing cells. Cells treated with Nutlin-3 (10 μM) were used as positive control for p21 upregulation. (C) qPCR analysis of the indicated apoptosis-related genes in SEQ ID NO: 3-overexpressing HCT116 cells.
Cells pellets (4-5*10^6 cells) were homogenized in medium-salt lysis buffer (150 mM NaCl, 50 mM Tris pH 8, 1% NP40 and protein inhibitors cocktail). 50 μg of protein was loaded per lane in a 12% acrylamide gel and electrophoresed in Tris-Glycine SDS Running Buffer. The following antibodies were used: Anti-HA-Tag (Abcam, 1:5000), Anti-p53 (Santa Cruz, 1:1000), Anti-p21 (Thermo Fisher, 1:1000), Anti-GAPDH (Thermo Fisher, 1:5000).
A general note: Immunoblotting shows a protein as a band on a membrane.

The subject of a further assay is BAX, BAK and BCL-2. As to the kind of experiment: Apoptosis-related gene expression by qPCR in HCT116. It counts as cell-based, human. Conditions: HCT116 colorectal cancer cell line. Here is the method: as §1
(§2) Total RNA was extracted with Trizol® and treated with TURBO™ DNase following provider's recommendations. 1 μg of RNA was retrotranscribed using iScript™ cDNA Synthesis Kit (BioRad). Gene expression was analysed by quantitative real time PCR using PowerUp SYBR Green Master Mix (Thermo Fisher Scientific) in the 7900HT Fast Real-Time PCR System (Applied Biosystems). Cycle threshold (Ct) values were normalized to GAPDH.
In general terms: In qPCR the cycle at which signal appears reflects the starting amount.

The test system of the next assay is A549, human lung cancer. As to the kind of experiment: Cell death after retroviral overexpression (phase contrast images). It counts as cell-based. From the text:
(§3) FIG. 23. Overexpression of the micropeptide of SEQ ID NO: 3 in cancer cell lines. (A) Analysis of SEQ ID NO: 3 overexpression by qPCR in A459 cells. (B) Detection of SEQ ID NO: 3 micropeptide expression in A459 cells by Western blot. (C) Phase contrast images of the indicated cell lines after SEQ ID NO: 3 overexpression.

Assay [1] relates to HCT116, human colorectal cancer. The description is as above. It counts as cell-based.
From the text: as §3

For assay [2], the system named is p21. As to the kind of experiment: p21 expression by qPCR in HCT116. The following applies: HCT116 cells. It counts as cell-based, human. As for the experimental part:
as §1, §2

Assay [3] has as its system p21. The assay can be described thus: p21 expression by qPCR in A549. It counts as cell-based, human. The following applies: A459 cells. Here is the method: as §1, §2
In the next assay the test system is BxPC-3 cell line. As to the kind of experiment: Invasion assay (Boyden chamber, Matrigel). The following applies: BxPC-3, 24 hours after seeding, vs empty vector. In kind it is cell-based. Here is the method: FIG. 18. Expression of the micropeptide of SEQ ID NO: 2 impairs cell invasion in pancreatic cancer cells. (A) Invasion of BxPC-3 cells transduced with micropeptide of SEQ ID NO: 2 or empty vector across matrigel-covered inserts. Representative pictures of invading cells 24 hours after seeding. (B) Relative number of invading cells. Bars represent the average of two independent experiments±SD (n=2), as relative to invading cells in the empty vector conditions. * p<0.05, using Student's t-test.
(§4) BxPC-3, MDA-MB-231, A549 and H10 cell lines were trypsinized, counted, and 20.000 cells/well were seeded in triplicate in a Corning® cell culture insert (Boyden chamber) in which the porous membrane is coated with a layer of Matrigel® to mimic an extra cellular matrix (ECM). Cells were allowed to invade through the coated membrane for 24 hours in the cell incubator at 37° C. After the incubation time, culture inserts were fixed in methanol 5 minutes at RT and stained using Crystal Violet 20 minutes at RT. The excess of Crystal Violet staining was removed washing with PBS and pictures of the chambers were taken using an Olympus CeIIR microscope. Invading cells were counted using ImageJ and fold change was calculated normalizing to the control.

Another assay deals with MIA PaCa-2 cells. As to the kind of experiment: Wound healing assay. It counts as cell-based. Conditions: MIA PaCa-2, vs empty vector. Here is the method: (§5) FIG. 17. The micropeptide of SEQ ID NO: 2 impairs migration capability of pancreatic cancer cell lines. Wound healing assay was performed in MIA PaCa-2 (A) and BxPC-3 (B) cells infected with MIDORI or empty vector. Phase contrast images show the wound at the indicated time points after the scratch was performed.
(§6) MIA PaCa-2 and BxPC-3 cells were trypsinized, counted, and 400,000 cells/well were seeded in 6-well plates. Next day, a pipette tip was used to scratch the surface of cell monolayer, forming a wound. An Olympus CeIIR microscope equipped with a Hamamatsu C9100 camera was used to follow the closure of the wound.

The next assay deals with BxPC-3 cells. The assay can be described thus: Wound healing assay. In kind it is cell-based. The following applies: BxPC-3, vs empty vector. Here is the method: as §5, §6
The subject of assay [4] is EMT regulators and adhesion factors in MIA PaCa-2 pancreatic cancer cell line. As to the kind of experiment: EMT related gene expression by qPCR in MIA PaCa-2. The following applies: MIA PaCa-2, vs empty vector. It counts as cell-based.
From the text: (§7) FIG. 15. Expression of the micropeptide of SEQ ID NO: 2 induces loss of mesenchymal identity in IMR90 (A), MIA PaCa-2 (B) and BxPC-3 (C) cell lines. mRNA levels of the indicated genes measured by qPCR. Values are relative to cells expressing the empty vector as a control. *P<0.05, **P<0.01, ***P<0.001 using Student's t-test for statistics. Error bars represent standard error of n=3 technical replicates.
as §2

In assay [5] the test system is EMT regulators, adhesion factors and METALLOPROTEINASE-2 in murine pancreatic cancer associated fibroblasts (mCAFs). The assay can be described thus: EMT related gene expression by qPCR in mCAFs. The following applies: vs empty vector. It counts as cell-based. As for the experimental part:
FIG. 16. Overexpression of the micropeptide of SEQ ID NO: 2 induces loss of mesenchymal identity. mRNA levels of the indicated genes were measured by qPCR in mCAFs (A-B) cells. Values are relative to cells expressing the empty vector as a control. *P<0.05; **P<0.01; ***P<0.001 using Student's t-test for statistics. Error bars represent standard error of n=3 technical replicates.
as §2

The subject of assay [6] is EMT regulators and adhesion factors in human primary fibroblasts (IMR90). As to the kind of experiment: EMT related gene expression by qPCR in IMR90. It counts as cell-based. The following applies: vs empty vector.
From the text: as §7, §2

For assay [7], the system named is EMT regulators and adhesion factors in BxPC-3 pancreatic cancer cell line. As to the kind of experiment: EMT related gene expression by qPCR in BxPC-3. Conditions: BxPC-3, vs empty vector. In kind it is cell-based.
From the text: as §7, §2

Assay [8] relates to PDAC pancreatic cancer cells co-cultured with CAFs. As to the kind of experiment: CAFs pro-invasive activity, co-culture with PDAC cells in Matrigel coated inserts. It counts as cell-based, mice. The following applies: micropeptide expressed in CAFs in bottom compartment, PDAC cells co-cultured 24 h. Here is the method:
FIG. 19. Expression of the micropeptide of SEQ ID NO: 2 reduces pro-tumoral activity of mCAFs cells. (A) Invasion of WT PDAC pancreatic cancer cells across matrigel-covered inserts where mCAFs expessing the micropeptide of SEQ ID NO: 2 or empty vector were seeded in the bottom compartment of the Boyden chambers. Representative pictures of invading cells 24 hours after seeding. (B) Relative number of invading cells.±SD (n=3 technical replicates), as relative to invading cells in the empty vector conditions.
BxPC-3 and A549 cell lines were cultured in RPMI supplemented with 10% of FBS and penicillin-streptomycin. Patient derived-H10 skin squamous cell carcinoma cell line was cultured in DMEM-F12 supplemented with B27 and penicillin-streptomycin. Cancer associated fibroblasts (CAFs) and PDAC cell lines were derived from LSL^−KrasG12D/+;LSL-Trp53R172H/+;Pdx-1-Cre mice and cultured in DMEM-F12 supplemented with 10% FBS and penicillin-streptomycin. All the other cell lines were cultured in DMEM supplemented with 10% of FBS and penicillin streptomycin. Cultures were routinely tested for mycoplasma and were always negative.
In order to test CAFs pro-invasive activity, 40.000 CAFs/well were seeded in 24-well plates. 48 h later, PDAC cells were trypsinized, counted, and 20.000 cells were seeded in the upper compartment of Matrigel® coated inserts that were placed over CAFs containing wells. […]

Assay [9] relates to SLUG, ZEB1, ZEB2, VIMENTIN, E-CADHERIN and CYTOKERATIN-5 in MDA-MB-231. As to the kind of experiment: Mesenchymal and epithelial gene expression by qPCR in MDA-MB-231. In kind it is cell-based, human. Conditions: MDA-MB-231, vs empty vector. As for the experimental part: FIG. 21. Overexpression of the micropeptide of SEQ ID NO: 2 induces loss of mesenchymal identity. mRNA levels of the indicated genes were measured by qPCR in MDA-MB-231 cell line. Values are relative to cells expressing the empty vector as a control. *P<0.05; **P<0.01; ***P<0.001 using Student's t-test for statistics. Error bars represent standard error of n=3 technical replicates.
as §2

The subject of assay [10] is MDA-MB-231 breast cancer cell line. As to the kind of experiment: Invasion assay (Boyden chamber, Matrigel). It counts as cell-based, human. Conditions: MDA-MB-231, 24 hours after seeding, vs empty vector. Here is the method:
FIG. 22. Expression of the micropeptide of SEQ ID NO: 2 reduces cell invasion of breast cancer cells. (A) Invasion of MDA-MB-231 breast cancer cells transduced with micropeptide of SEQ ID NO: 2 or empty vector across matrigel-covered inserts. Representative pictures of invading cells 24 hours after seeding. (B) Relative number of invading cells±SD (n=3 technical replicates), as relative to invading cells in the empty vector conditions. * p<0.05, using Student's t-test.
as §4

B1: SEQ ID NO: 3: 78-amino acid micropeptide encoded by the first exon of LINC0086 lncRNA (protein, listed as Homo sapiens)
chain: MAASAALSAAAAAAALSGLAVRLSRSAAARGSYGAFCKGLTRTLLTFFDLAWRLRMNFPYFYIVASVMLNVRLQVRIE
For B1, the p21 protein levels entry in the assay on p21 protein is on record as “increased p21 protein levels”. Further, the “expression of the antiapoptotic gene BCL-2” value in the assay with BAX, BAK and BCL-2 is “downregulation”. In addition, in the assay with BAX, BAK and BCL-2, the “expression of the pro-apoptotic genes BAX and BAK” value is recorded as “upregulation”. Moreover, the cell death result in the assay on A549, human lung cancer is listed as “massive cell death”; in assay [1], “massive cell death”. In addition, the “p21 expression (qPCR)” value in the assay with p21 [2] and in the assay on p21 [3] was “substantial p21 upregulation” in each case.

B2: SEQ ID NO: 2: 64-amino acid micropeptide encoded by ZEB2 antisense 1 (ZEB2AS1) long non-coding RNA (protein, listed as Homo sapiens)
chain: MVRRKSMKKPRSVGEKKVEAKKQLPEQTVQKPRQECREAGPLFLQSRRETRDPETRATYLCGEG
Turning to B2, the invasion entry with BxPC-3 cell line was “decreased invasion”. The “migration capability in wound healing assays” value in the assay with MIA PaCa-2 cells and in the assay on BxPC-3 cells was “decreased migration capability” in each case. Moreover, the “expression of EMT regulators SNAIL, SLUG, ZEB1, ZEB2, TWIST1 and VIMENTIN (if expressed) and adhesion factors COLLAGEN I, COLLAGEN IV, CD44 and FIBRONECTIN” value in assay [4], in assay [5], in [6] and in assay [7] was “downregulation” throughout. Also, the “expression of METALLOPROTEINASE-2” value in [5] is listed as “downregulation”. The “pancreatic cancer cell invasion (non-cell autonomous)” value in assay [8] was “reduces pancreatic cancer cell invasion”. In addition, the “expression of epithelial markers E-CADHERIN and CYTOKERATIN-5” value in assay [9] is listed as “upregulation”. In addition, the “expression of the EMT regulators SLUG, ZEB1, ZEB2 and VIMENTIN” value in assay [9] was “downregulation”. Further, in assay [10], the invasion capability entry is reported as “decreased invasion capability”.
